“Also recorded” adds a separate entry of the source.
Assays:
mouse model of TBI = conditions: earlier G-CSF work stated as background to Example 6; cited from earlier work
[1] = system: PKCδVIII and Bcl2 expressed in THP-1 monocytic cells; assay: Western blot of PKCδVIII and Bcl2 in THP-1 monocytic cells; type: cell-based, human; conditions: THP-1, G-CSF 200 ng/mL (10.6 nM), 24 h
Protocol: (§1) In addition, a set of flasks were co-incubated with the combination of G-CSF and 3 concentrations of test drug. Whole cell lysates ([…]) were separated on 10% polyacrylamide gel electrophoresis-SDS (PAGE-SDS). Proteins were electrophoretically transferred to nitrocellulose membranes, blocked with 5% nonfat milk prepared on Tris buffered saline containing 0.1% Tween 20, washed and incubated with a polyclonal antibody against either Bcl2 (Cell Signaling, Danvers, Mass.) or PKCδVIII-specific polyclonal antibody (Jiang, K., et al. Biochemistry 2008, 47, 787-797). The house keeping gene GAPDH was used as an internal standard. Following incubation with anti-rabbit IgG-HRP, enhanced chemiluminesence (Pierce™, Thermo Scientific, Walthahm, Mass.) was used for detection and the gels were analyzed using UN-SCAN-IT™ software (Silk Scientific, Inc., Orem, Utah).
(§2) Statistical analysis. Densitometric results from Western blots were analyzed with two-tailed t-tests when only two groups were compared. In other analyses where 3 groups were compared, one-way ANOVA followed by t-tests with Dunnett's corrections for multiple comparisons was utilized. All data was presented as mean±SEM. All statistical analysis of data was done via PRISM4 or PRISM5 statistical analysis software (GraphPad Prism, La Jolla, Calif.). Neurohistologic analyses are performed using ANOVA. All comparisons were considered significant at level of P<0.05.

[2] = system: PKCδVIII and Bcl2 expressed in SH-SY5Y neuronal cells; assay: Western blot of PKCδVIII and Bcl2 in SH-SY5Y neuronal cells; type: cell-based, human; conditions: SH-SY5Y, G-CSF 100 ng/mL (5.3 nM), 24 h
Protocol: as §1, with “THP-1 cells or SH-SY5Y cells 3×10^6 cells in 5 mL media in a 25 cm^2 flask were treated with 100 ng/mL G-CSF or three different concentrations of the test drug for 24 h. In addition,” for “In addition,”
as §2

B1: G-CSF: Granulocyte-colony stimulating factor, a glycoprotein cytokine; natural ligand of G-CSF-R; SEQ ID NO: 1 (protein, listed as Homo sapiens)
chain: MAGPATQSPMKLMALQLLLWHSALWTVQEATPLGPASSLPQSFLLKCLEQVRKIQGDGAALQEKLVSECATYKLCHPEELVLLGHSLGIPWAPLSSCPSQALQLAGCLSQLHSGLFLYQGLLQALEGISPELGPTLDTLQLDVADFATTIWQQMEELGMAPALQPTQGAMPAFASAFQRRAGGVLVASHLQSFLEVSYRVLRHLAQP
- recovery in the radial arm water maze (RAWM) (mouse model of TBI): significantly promoted recovery
- Bcl2 expression [1]: increased the expression of PKCδVIII and Bcl2
- PKCδVIII expression [1]: increased the expression of PKCδVIII and Bcl2
- Bcl2 expression [2]: much greater at equivalent concentrations; also recorded: increased
- PKCδVIII expression [2]: much greater at equivalent concentrations; also recorded: increased

From patent US10813913B2, “Small molecules that mimic or antagonize actions of granulocyte colony-stimulating-factor (G-CSF)” (UNIVERSITY OF SOUTH FLORIDA, priority 2016, dated 2020)
